Experimental findings from patent US12157773 (SYNTHEKINE, dated 2024) are described below.

Sequences and labels used below:
B1: mIL27Ra VHH12 (VHH)
VHH: QVQLQESGGGSVQTGGSLRLSCAASGYSINRMAWFRQAPGKEREGVAAISIGGDRTYYADSVKGRFTISQDNAKHTVDLQMNSLKPEDTAMYYCAAGLVYGEAWLDSRHYNKWGQGTQVTVSS
notes: Camel VHH as periplasmic extract of a phage clone in the PE-ELISA; also called anti-mouse IL27Rα VHH; not shown: HA/His tag from the pMECS phagemid
B2: mIL27Ra VHH6 (VHH)
VHH: QVQLQESGGGSVQAGGSLRLSCAASGYTYSSYCMAWFRQAPGKEREGVAAIDSDGSTSYADSVKGRFTISKDNAKNTLYLQMNSLKPEDTAMYYCAAASGRCLGPGIRSLIWGQGTQVTVSS
notes: as for B1
B3: mIL27Ra VHH5 (VHH)
VHH: QVQLQESGGGSVQAGGSLRLSCAVSGDSTYSMGWFRQPPGKEREGVAAIAKDGITIHADSVKGRFTISKDNAKNTLYLQMNSLKPEDTAMYYCAAHRPYGPPLNPRWYTYWGQGTQVTVSS
notes: as for B1
B4: mIL27Ra VHH10 (VHH)
VHH: QVQLQESGGGSVQAGGSLRLSCAVSGDSTYSMGWFRQPPGKEREGVAAIGKDGITIHADSVKGRFTISKDNAKNTLYLQMNSLKPEDTAMYYCAAHRPYGPPLNPRWYTYWGQGTQVTVSS
notes: as for B1
B5: mIL27Ra VHH9 (VHH)
VHH: QVQLQESGGGSVQAGGSLRLSCAVSGDSTYSMGWFRQPPGKEREGVAAIAKDGITIHADSVKGRFTISKDNAKNTLYLQMSSLKPEDTAMYYCAAHRPYGPPLNPRWYTYWGQGTQVTVSS
notes: as for B1
B6: mIL27Ra VHH14 (VHH)
VHH: QVQLQESGGGSVQAGGSLRLSCAVSGDSTYSMGWFRQPPGKEREGVAAITKDGITIHADSVKGRFTISGDNAKNTLYLQMNNLKPEDTAMYYCAAHRPYGPPLNPRWYTYWGQGTQVTVSS
notes: as for B1
B7: mIL27Ra VHH8 (VHH)
VHH: QVQLQESGGGSVQAGGSLRLSCAVSGDSTYSMGWFRQPPGKEREGVAAIPTDGITIHADSVKGRFTISKDNAKNTLYLQMNSLKPEDTAMYYCAAHRPYGPPLNPRWYTYWGQGTQVTVSS
notes: as for B1
B8: mIL27Ra VHH7 (VHH)
VHH: QVQLQESGGGSVQAGGSLRLSCAVSGDSTYSMGWFRQPPGKEREGVAAITKDITIHADSVKGRFTISKDNAKNTLYLQMNSLKPEDTAMYYCAAHRPYGPPLNPRWYTYWGQGTQVTVSS
notes: as for B1
B9: mIL27Ra VHH11 (VHH)
VHH: QVQLQESGGGSVQAGGSLRLSCAVSGDSTYSMGWFRQPPGKEREGVAAITKDITIHADSVKGRFTISKDNAKNTLYLQMNSLRPEDTAMYYCAAHRPYGPPLNPRWYTYWGQGTQVTVSS
notes: as for B1

The experiment concerns the target T1, mIL27Rα ECD antigen (mouse, UniProt O70394 25-510).
T1 construct: Antigen of biopanning and PE-ELISA; The immunogen was made as a fusion of the ECD (residues 25-510 of the precursor) with the human IgG1 hinge and Fc; also called ECD of mouse IL27Rα; IL27Rα coated on the plate
T1 sequence: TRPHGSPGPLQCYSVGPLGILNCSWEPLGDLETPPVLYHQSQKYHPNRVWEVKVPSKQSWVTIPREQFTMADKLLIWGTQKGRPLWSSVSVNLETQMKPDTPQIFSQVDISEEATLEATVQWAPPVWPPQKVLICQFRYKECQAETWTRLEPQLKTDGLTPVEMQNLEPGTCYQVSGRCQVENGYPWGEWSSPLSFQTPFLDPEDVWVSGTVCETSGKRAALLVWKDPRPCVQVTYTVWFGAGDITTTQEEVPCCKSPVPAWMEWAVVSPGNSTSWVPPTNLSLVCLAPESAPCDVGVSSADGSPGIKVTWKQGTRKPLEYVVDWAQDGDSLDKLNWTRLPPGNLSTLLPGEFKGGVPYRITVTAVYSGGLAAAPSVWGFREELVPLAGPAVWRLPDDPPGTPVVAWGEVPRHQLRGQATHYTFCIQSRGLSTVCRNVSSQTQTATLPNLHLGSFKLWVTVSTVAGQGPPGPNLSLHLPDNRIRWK
Put plainly: PE-ELISA, periplasmic extract on antigen-coated plate. The procedure: Upon completion of the biopanning of Example 3, three 96-well plates of individual phage clones were isolated in order to perform periplasmic extract ELISA (PE-ELISA) on IL27Rα coated plates to identify positive VHH binders that selectively bound […]. A 96-well plate was coated with IL27Rα and PBS under the same conditions. Next, wells were blocked at 37° C. for 1 h. Then, 100 µl of extracted antibodies was added to each well and incubated for 1 h. Subsequently, 100 µl of anti-tag polyclonal antibody conjugated to HRP was added to each well and incubated at 37° C. for 1 h. Plates were developed with TMB substrate. The reaction was stopped by the addition of H2SO4. Absorbance at 450 nm was read on a microtiter plate reader. […] Positive clones were sequenced, and sequences analyzed to identify unique clonotypes.
As to B1, the binding result is listed as “binds”.

For the molecule B2, the binding result is on record as “binds”.

B3: the binding result was “binds”.

Turning to B4, the binding result was “binds”.

B5: the binding result is listed as “binds”.

As to B6, the binding result is “binds”.

B7: the binding result is given as “binds”.

Consider B8, for which the binding result was “binds”.

On to B9, for which the binding result was “binds”.
